Occupancy time of the H state (locked BtuCD-F* complex) with 0.5 mM Mg-ATP data for one substance are collected here from paper doi:10.1101/2022.12.02.518935.

This assay deals with Biotinylated AF546-labeled BtuF (BtuF*), construct of the smFRET-Q experiments (E. coli). In words: smFRET-Q.

Chain of Wild type BtuCD reconstituted in nanodiscs (P06609 whole entry): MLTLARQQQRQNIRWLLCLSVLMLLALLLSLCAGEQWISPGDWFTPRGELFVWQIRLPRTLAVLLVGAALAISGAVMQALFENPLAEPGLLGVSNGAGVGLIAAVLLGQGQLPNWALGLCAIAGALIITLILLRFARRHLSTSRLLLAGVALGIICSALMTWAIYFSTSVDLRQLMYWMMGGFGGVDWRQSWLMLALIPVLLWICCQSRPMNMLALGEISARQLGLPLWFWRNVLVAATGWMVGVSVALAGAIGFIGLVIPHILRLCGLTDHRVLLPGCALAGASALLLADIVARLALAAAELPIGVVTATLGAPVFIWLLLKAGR
Chain of Wild type BtuCD reconstituted in nanodiscs (P06611 whole entry): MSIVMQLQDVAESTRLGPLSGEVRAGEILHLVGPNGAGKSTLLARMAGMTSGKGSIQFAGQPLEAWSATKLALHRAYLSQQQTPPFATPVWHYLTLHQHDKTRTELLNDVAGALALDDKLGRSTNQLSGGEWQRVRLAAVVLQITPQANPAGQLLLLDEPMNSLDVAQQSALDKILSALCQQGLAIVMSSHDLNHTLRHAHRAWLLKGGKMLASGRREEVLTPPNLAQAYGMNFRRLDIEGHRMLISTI

“Wild type BtuCD reconstituted in nanodiscs (from UniProt P06609 1-326; P06611 1-249) (complex)” came in with an occupancy time of the H state (locked BtuCD-F* complex) with 0.5 mM Mg-ATP of 1 s.
